Experimental data reported in patent publication US20250295737A1 (AstraZeneca / MedImmune, published 2025).
Like-named read-outs stand apart in the source and are kept apart here.

T1: mouse RXFP1 (mouse, UniProt Q6R6I7 1-758)
T1 sequence (looked up): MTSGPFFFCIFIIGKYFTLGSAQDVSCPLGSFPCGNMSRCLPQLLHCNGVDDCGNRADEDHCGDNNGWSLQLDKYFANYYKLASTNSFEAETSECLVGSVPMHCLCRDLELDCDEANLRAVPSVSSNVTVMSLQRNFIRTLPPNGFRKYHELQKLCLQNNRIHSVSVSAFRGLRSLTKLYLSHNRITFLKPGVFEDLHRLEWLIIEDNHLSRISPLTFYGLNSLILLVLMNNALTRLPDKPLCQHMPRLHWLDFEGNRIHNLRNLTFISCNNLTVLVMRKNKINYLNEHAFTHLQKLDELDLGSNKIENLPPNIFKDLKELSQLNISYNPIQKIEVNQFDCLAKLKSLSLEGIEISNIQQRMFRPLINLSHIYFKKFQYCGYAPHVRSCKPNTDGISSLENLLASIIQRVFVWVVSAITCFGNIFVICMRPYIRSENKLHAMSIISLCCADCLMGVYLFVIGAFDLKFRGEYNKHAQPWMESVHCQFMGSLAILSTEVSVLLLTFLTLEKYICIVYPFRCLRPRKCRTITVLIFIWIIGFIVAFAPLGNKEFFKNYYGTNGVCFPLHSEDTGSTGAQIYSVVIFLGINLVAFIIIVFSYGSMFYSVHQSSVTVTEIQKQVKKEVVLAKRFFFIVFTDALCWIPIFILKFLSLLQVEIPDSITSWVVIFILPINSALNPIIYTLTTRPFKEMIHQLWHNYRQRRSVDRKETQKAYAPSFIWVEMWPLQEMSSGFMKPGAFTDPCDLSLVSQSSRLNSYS

T2: human RXFP1 (human, UniProt Q9HBX9 1-757)
T2 sequence (looked up): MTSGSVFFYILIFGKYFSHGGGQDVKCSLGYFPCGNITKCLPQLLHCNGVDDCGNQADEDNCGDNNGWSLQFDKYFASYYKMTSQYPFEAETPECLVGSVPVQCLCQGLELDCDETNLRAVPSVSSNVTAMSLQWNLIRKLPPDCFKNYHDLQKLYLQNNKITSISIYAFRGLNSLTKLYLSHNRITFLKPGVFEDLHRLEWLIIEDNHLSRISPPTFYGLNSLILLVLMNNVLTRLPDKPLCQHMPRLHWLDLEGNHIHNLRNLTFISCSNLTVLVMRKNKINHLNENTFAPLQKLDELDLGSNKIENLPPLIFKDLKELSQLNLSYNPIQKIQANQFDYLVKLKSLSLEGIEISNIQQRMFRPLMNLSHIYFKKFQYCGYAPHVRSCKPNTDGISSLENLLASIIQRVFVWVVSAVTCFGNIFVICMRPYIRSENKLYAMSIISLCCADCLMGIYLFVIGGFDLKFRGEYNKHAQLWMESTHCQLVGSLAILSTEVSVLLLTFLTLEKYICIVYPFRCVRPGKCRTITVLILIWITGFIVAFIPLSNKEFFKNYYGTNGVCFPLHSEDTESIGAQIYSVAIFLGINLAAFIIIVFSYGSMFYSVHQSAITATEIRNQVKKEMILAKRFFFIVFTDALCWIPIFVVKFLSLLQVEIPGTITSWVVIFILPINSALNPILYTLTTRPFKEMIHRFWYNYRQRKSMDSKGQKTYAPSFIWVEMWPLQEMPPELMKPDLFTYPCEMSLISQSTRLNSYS

B1: RELAX0023 (Fc fusion)
chain 1: DKTHTCPPCPAPEFEGGPSVFLFPPKPKDTLMISRTPEVTCVVVDVSHEDPEVKFNWYVDGVEVHNAKTKPREEQYNSTYRVVSVLTVLHQDWLNGKEYKCKVSNKALPASIEKTISKAKGQPREPQVYTLPPCREEMTKNQVSLWCLVKGFYPSDIAVEWESNGQPENNYKTTPPVLDSDGSFFLYSKLTVDKSRWQQGNVFSCSVMHEALHNHYTQKSLSLSPGGGGGSGGGGSGGGGSGGGGGSQLYSALANKCCHVGCTKRSLARFC
chain 2: DKTHTCPPCPAPEFEGGPSVFLFPPKPKDTLMISRTPEVTCVVVDVSHEDPEVKFNWYVDGVEVHNAKTKPREEQYNSTYRVVSVLTVLHQDWLNGKEYKCKVSNKALPASIEKTISKAKGQPREPQVCTLPPSREEMTKNQVSLSCAVKGFYPSDIAVEWESNGQPENNYKTTPPVLDSDGSFFLVSKLTVDKSRWQQGNVFSCSVMHEALHNHYTQKSLSLSPGGGGGSGGGGSGGGGSGGGGGSSWMEEVIKLCGRELVRAQIAICGMSTWS
B2: RELAX0013 (ligand)
chain 1: DSWMEEVIKLCGRELVRAQIAICGMSTWS
chain 2: QLYSALANKCCHVGCTKRSLARFC
B3: RELAX0019 (Fc fusion)
chain 1: GGAGGACPPCPAPEFEGGPSVFLFPPKPKDTLMISRTPEVTCVVVDVSHEDPEVKFNWYVDGVEVHNAKTKPREEQYNSTYRVVSVLTVLHQDWLNGKEYKCKVSNKALPASIEKTISKAKGQPREPQVYTLPPCREEMTKNQVSLWCLVKGFYPSDIAVEWESNGQPENNYKTTPPVLDSDGSFFLYSKLTVDKSRWQQGNVFSCSVMHEALHNHYTQKSLSLSPGGGGGSGGGGSGGGGSGGGGGSQLYSALANKCCHVGCTKRSLARFC
chain 2: GGAGGACPPCPAPEFEGGPSVFLFPPKPKDTLMISRTPEVTCVVVDVSHEDPEVKFNWYVDGVEVHNAKTKPREEQYNSTYRVVSVLTVLHQDWLNGKEYKCKVSNKALPASIEKTISKAKGQPREPQVCTLPPSREEMTKNQVSLSCAVKGFYPSDIAVEWESNGQPENNYKTTPPVLDSDGSFFLVSKLTVDKSRWQQGNVFSCSVMHEALHNHYTQKSLSLSPGGGGGSGGGGSGGGGSGGGGGSSWMEEVIKLCGRELVRAQIAICGMSTWS
B4: RELAX0117 (Fc fusion)
chain 1: QLYSALANKCCHVGCTKRSLARFCAAAGGGGSGGGGSGGGGSGGGGSACPPCPAPEFEGGPSVFLFPPKPKDTLMISRTPEVTCVVVDVSHEDPEVKFNWYVDGVEVHNAKTKPREEQYNSTYRVVSVLTVLHQDWLNGKEYKCKVSNKALPASIEKTISKAKGQPREPQVYTLPPCREEMTKNQVSLWCLVKGFYPSDIAVEWESNGQPENNYKTTPPVLDSDGSFFLYSKLTVDKSRWQQGNVFSCSVMHEALHNHYTQKSLSLSPGGGGGSGGGGSGGGGSGGGGGSQLYSALANKCCHVGCTKRSLARFC
chain 2: SWMEEVIKLCGRELVRAQIAICGMSTWSAAAGGGGSGGGGSGGGGSGGGGSACPPCPAPEFEGGPSVFLFPPKPKDTLMISRTPEVTCVVVDVSHEDPEVKFNWYVDGVEVHNAKTKPREEQYNSTYRVVSVLTVLHQDWLNGKEYKCKVSNKALPASIEKTISKAKGQPREPQVCTLPPSREEMTKNQVSLSCAVKGFYPSDIAVEWESNGQPENNYKTTPPVLDSDGSFFLVSKLTVDKSRWQQGNVFSCSVMHEALHNHYTQKSLSLSPGGGGGSGGGGSGGGGSGGGGGSSWMEEVIKLCGRELVRAQIAICGMSTWS
B5: RELAX0014 (ligand)
chain 1: MRVSEEWMDGFIRMCGREYARELIKICGASVGR
chain 2: ESGGLMSQQCCHVGCSRRSIAKLYC

Legend:
Assay in all cases: cell-based or functional assay
[1] = target: T3, human RXFP2 (human, UniProt Q8WXD0 1-754)
[2] = target: T1, mouse RXFP1
[3] = target: T2, human RXFP1
[4] = target: T3, human RXFP2; remark: listed apart in the source
[5] = target: T1, mouse RXFP1; remark: listed apart in the source
[6] = target: T2, human RXFP1; remark: listed apart in the source
[7] = target: T3, human RXFP2; remark: listed apart in the source
[8] = target: T1, mouse RXFP1; remark: listed apart in the source
[9] = target: T2, human RXFP1; remark: listed apart in the source

T3 sequence (Q8WXD0 whole entry): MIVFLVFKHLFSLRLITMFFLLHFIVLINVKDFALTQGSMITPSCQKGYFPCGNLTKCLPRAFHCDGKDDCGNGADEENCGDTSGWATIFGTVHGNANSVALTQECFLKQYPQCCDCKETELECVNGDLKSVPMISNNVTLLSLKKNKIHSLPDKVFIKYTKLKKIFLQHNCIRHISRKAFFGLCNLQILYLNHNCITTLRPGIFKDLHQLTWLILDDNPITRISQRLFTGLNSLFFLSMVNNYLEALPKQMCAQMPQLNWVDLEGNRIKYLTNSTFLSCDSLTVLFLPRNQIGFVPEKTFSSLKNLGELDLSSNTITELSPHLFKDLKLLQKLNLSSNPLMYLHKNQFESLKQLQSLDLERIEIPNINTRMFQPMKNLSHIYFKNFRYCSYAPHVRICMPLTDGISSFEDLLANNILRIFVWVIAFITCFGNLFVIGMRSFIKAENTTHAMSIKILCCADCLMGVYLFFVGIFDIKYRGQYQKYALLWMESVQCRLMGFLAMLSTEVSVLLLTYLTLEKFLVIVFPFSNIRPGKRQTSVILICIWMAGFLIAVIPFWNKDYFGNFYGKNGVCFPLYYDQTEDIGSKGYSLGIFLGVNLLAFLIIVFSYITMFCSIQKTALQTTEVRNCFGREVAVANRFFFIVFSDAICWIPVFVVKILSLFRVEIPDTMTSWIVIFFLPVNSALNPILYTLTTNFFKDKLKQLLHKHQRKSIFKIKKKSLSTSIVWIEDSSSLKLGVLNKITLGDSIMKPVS

Row | Binder | EC50 hRXFP2 (M), cAMP HTRF assay [1] [M] | EC50 mRXFP1 (M), cAMP HTRF assay [2] [M] | EC50 hRXFP1 (M), cAMP HTRF assay [3] [M] | EC50 hRXFP2 (M), cAMP HTRF assay [4] [M] | EC50 mRXFP1 (M), cAMP HTRF assay [5] [M] | EC50 hRXFP1 (M), cAMP HTRF assay [6] [M] | EC50 hRXFP2 (M), cAMP HTRF assay [7] [M] | EC50 mRXFP1 (M), cAMP HTRF assay [8] [M] | EC50 hRXFP1 (M), cAMP HTRF assay [9] [M]
1 | B1 | 3.24e-08 | 3.27e-11 | 3.77e-11 | 4.2e-08 | 1.36e-11 | 3.32e-11 | – | – | –
2 | B2 | 1.75e-09 | 7.54e-13 | 1.15e-12 | 1.75e-09 | 7.54e-13 | 1.15e-12 | 1.75e-09 | 7.54e-13 | 1.15e-12
3 | B3 | 3.42e-08 | 9.1e-12 | 3.57e-11 | 4.4e-08 | 2.24e-11 | 5.81e-11 | 4.4e-08 | 2.24e-11 | 5.81e-11
4 | B4 | 1.61e-08 | 1.74e-11 | 1.06e-11 | – | – | – | – | – | –
5 | B5 | 1.78e-12 | 2.37e-12 | 4.47e-12 | 1.78e-12 | 2.37e-12 | 4.47e-12 | 1.78e-12 | 2.37e-12 | 4.47e-12
